From patent US20080241166A1

Biological target: hen egg lysozyme (hen) (UniProt P00698)
Assay: ELISA on coated HEL (3 mg/ml); detection via the myc tag with 9e10 and anti mouse IgG-HRP

Sequence of hen egg lysozyme (hen) (P00698 19-147): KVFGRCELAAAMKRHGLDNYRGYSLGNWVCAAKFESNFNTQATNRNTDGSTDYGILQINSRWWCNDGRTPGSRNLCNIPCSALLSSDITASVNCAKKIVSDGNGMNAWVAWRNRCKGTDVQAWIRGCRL

ELISA signal (background): 0.069
B1: VHCκ chain expressed alone (TAR2-5-Cκ) (protein, not shown: small tags and cut ends)
chain: EVQLLESGGGLVQPGGSLRLSCAASGFTFDLYNMFWVRQAPGKGLEWVSFISQTGRLTWYADSVKGRFTISRDNSKNTLYLQMNSLRAEDTAVYYCAKTLEDFDYWGQGTLVTVSS
